Measured values published in patent US8383602B2, “Use of TRIM72 as a target for muscle and heart enhancer” (Korea University Industrial & Academic Collaborative …, priority 2007, dated 2013).
Residues, ends and D or L forms follow the SMILES beside them. *: point of attachment. Cbz = O=C(OCc1ccccc1)*

Key:
Assay type in all cases: cell-based
[1] = test system: IRS-1; experiment: IRS-1 expression in 293 cells co-transfected with TRIM72; settings: IRS-1 and TRIM72 transfected, FIG. 11A
Description: (§1) A. IRS-1 (6 μg) and TRIM72 (2 μg) were transfected into HEK 293 cells for 30 hours and expression of IRS-1 and TRIM72 was investigated after treating with the proteosomal degradation inhibitor MG132 for 10 hours. B. IRS-1 (3 μg) and TRIM72 at various concentrations (0, 0.5, 1, 2 μg) were transfected into 293 cells for 30 hours and expression of IRS-1 was investigated. C. HA-TRIM72 (or HA-TRIM72 C14A), Flag-IRS-1 and His-ubiquitin were transfected into 293 cells for 30 hours and MG132 was treated for 10 hours. Ubiquitination of IRS-1 was identified by immunoblotting using His after immunoprecipitation with Flag antibody. Red brace denotes ubiquitination of IRS-1.
(§2) IRS-1 constructs (full-length, 1-3729; PH-PTB domain, 1-900; Mid-region, 880-2608; Rear-region, 2581-3729) and TRIM72 cDNA constructs (full-length, 1-1431; ΔRING, 181-1431; coiled-coil, 367-1020; CCSPRY, 367-1431; SPRY, 687-1431; Δcoiled-coil) were generated by PCR using the primers described in Table 1 and cloned into pCMV-Tag2B vector and pCMV-3Tag4a vector (Stratagene), respectively. […] Luciferase activity in cell lysates was measured by using the luciferase assay system (Promega) in a Luminoskan Ascent (Thermo Labsystem). […]
(§3) Western blotting and immunostaining were performed as described in Kim, K. B. et al. Proteomics 6, 2444-53 (2006). […] The immunoprecipitates were analyzed by Western blotting.

[2] = test system: TRIM72 promoter; experiment: TRIM72 promoter-luciferase activity during muscle differentiation, pharmacological inhibitors; settings: FIG. 14A
Description: (§4) A. CEMI promoter-luciferase fused gene having E2 and E3 was expressed in C2C12 myoblasts for 24 hours and muscle differentiation into myotubes was induced for 24 hours. While inducing muscle differentiation, PI3K inhibitor (LY294002, 10 μM), mTOR inhibitor (rapamycin, 100 nM), GSK3β inhibitor (LiCl, 5 mM) and MAPK inhibitor (PD98059, 10 μM) were treated and luciferase activity was measured. B. CEMI promoter-luciferase fused gene having E2 and E3 and MyoD gene were expressed in C2C12 myoblasts for 24 hours. After treating with various agents for 24 hours, luciferase activity was measured. C. […] After inducing muscle differentiation into myotubes for 24 hours, luciferase activity was measured. […] After inducing differentiation for 24 hours, luciferase activity was measured.
as §2

[3] = test system: TRIM72 promoter; experiment: MyoD-dependent TRIM72 promoter-luciferase activity in myoblasts, pharmacological inhibitors; settings: agents treated 24 hours, FIG. 14B
Description: as §4, §2

[4] = test system: C2C12 myoblasts; experiment: Muscle differentiation of C2C12 myoblasts transfected with wild type or mutant TRIM72 genes; settings: genes expressed in C2C12 myoblasts, differentiation induced, FIG. 10B
Description: (§5) C2C12 cells were purchased from ATCC and grown in Dulbecco's modified Eagle's medium (DMEM) supplemented with 2% penicillin/streptomycin (WelGene) and 10% fetal bovine serum (WelGene) in a 5% CO2 incubator at 37° C. Confluent C2C12 myoblasts were differentiated into myotubes by incubation with DMEM supplemented with the same antibiotics and 2% horse serum. Every 48 hours, the myotubes were fed with fresh DMEM containing 2% horse serum. Male C57BL/Ksj mice were maintained on a controlled lighting schedule, with a 12-h dark period. Twenty-week-old mice were used in all of the experiments in this study.
as §2, with “respectively. Alternatively, TRIM72 and TRIM72 C14A were generated by PCR reaction using the primers described in Table 1 and cloned into pHM6-HA vector, pCMV-Tag2B or pHM6 vector (Roche).” for “respectively.”

[5] = test system: IRS-1; experiment: IRS-1 ubiquitination in 293 cells; settings: TRIM72, IRS-1 and ubiquitin co-expressed in 293 cells, MG132 treated, FIG. 11C
Description: as §1
293T cells are transfected with pCMV-HA-TRIM72 (1 μg) or pCMV-HA-TRIM72 C14A (1 μg) and pCMV-Flag-IRS-1 (3 μg) and His-ubiquitin (3 μg) using Polyfect (Qiagen). Twenty-four hours after transfection, cells were treated with MG132 (5 μM) for 12 h. Cell lysates were immunoprecipitated with anti-Flag for 2 h. The immunoprecipitates were analyzed by Western blotting against anti-His antibody.

[6] = test system: C2C12 myoblasts; experiment: Muscle differentiation (myogenesis) after TRIM72 overexpression by adenoviral vector or TRIM72 interference by SiRNA
Description: as §5
(§6) An adenoviral vector with TRIM72 was constructed using ViraPower™ Adenoviral Expression System (Invitrogen) under control of the cytomegalovirus (CMV). Full-length-TRIM72 ORF (open reading frame) was cloned into an entry vector pENTR (Invitrogen) using the restriction enzyme sites (SalI and NotI) and homologously recombined into a destination vector pAd/CMV/V5-DEST (Invitrogen) which has the adenoviral genome and CMV promotor. The cloned TRIM72-adenoviral genome was linearlized by cutting with PacI restriction enzyme and transfected into 293A cells using a transfection agent (GenePorter II). After 10-15 days of the transfection, the supernatant comprising adenovirus was re-transfected into 293A cells to obtain the amplified adenovirus. The obtained adenovirus supernatant was purified into adenovirus particles using cessium chlororide. C2C12 myoblasts grown in 6 well plates were infected by adenovirus with the dosage of 4×10^10 VP/ml.
(§7) SiRNA oligomer targeting TRIM72 was designed from Dharmacon. Target sequence of TRIM72 is 5′-[…]-3′. The cell cultures were transfected with control RNAi and TRIM72 specific siRNA using transfection reagent (TransIT®-TKO, Mirus), which was prepared according manufacturer's instruction. Transfected cells were then transferred to media containing 2% horse serum at least for 48 h.
Western blotting and immunostaining were performed as described in Kim, K. B. et al. Proteomics 6, 2444-53 (2006). For immunoprecipitation, cells were lysed in buffer containing 20 mM Tris-HCl pH 7.4, 137 mM NaCl, 1 mM MgCl2, 1 mM CaCl2, 20 mM NaF, 10 mM Na4P2O7, 1% NP-40, 1 mM Na3VO4, 1 mM PMSF and protease inhibitor cocktail (Roche). The whole cell lysates (600 μg protein) were incubated with specific antibodies for 90 min and then with 50 μl of Protein A-sepharose or G-agarose bead (50%) slurry for 1 h. The immunoprecipitates were analyzed by Western blotting.

[7] = test system: AKT; experiment: IGF-1-induced AKT phosphorylation after TRIM72 overexpression or knockdown; settings: myoblasts (overexpression) / myotubes (knockdown), FIG. 7A
Text: as §6
(§8) SiRNA oligomer targeting TRIM72 was designed from Dharmacon. Target sequence of TRIM72 is 5′-[…]-3′. The cell cultures were transfected with control RNAi and TRIM72 specific siRNA using transfection reagent (TransIT®-TKO, Mirus), which was prepared according manufacturer's instruction. […]
as §3

[8] = test system: ERK1/2; experiment: IGF-1-induced ERK1/2 phosphorylation after TRIM72 overexpression or knockdown; settings: myoblasts (overexpression) / myotubes (knockdown), FIG. 7A
Text: as §6, §8, §3

[9] = test system: PI3K; experiment: IGF-1-induced PI3K activation (PI(3)K activity of anti-p85 immunoprecipitates); settings: FIG. 7B
Text: as §6
as §7, with “h. […]” for “h.”

[10] = test system: IGFR; experiment: IGF-I-induced tyrosine phosphorylation of IGFR (immunoprecipitation); settings: FIG. 8
Text: as §6, §8, §3

[11] = test system: IRS-1; experiment: IGF-I-induced tyrosine phosphorylation of IRS-1 (immunoprecipitation); settings: IGF-I stimulation, FIG. 8
Text: as §6, §8, §3

[12] = test system: IRS-1 with PI3K; experiment: Molecular association of IRS-1 with PI3K after IGF-I stimulation (immunoprecipitation); settings: FIG. 8
Text: as §6, §8, §3

[13] = test system: M-Cadherin; experiment: M-Cadherin expression after TRIM72 overexpression or Si-RNA; settings: FIGS. 12C-12E
Text: as §6, §8, §3

With `CC(C)C[C@@H](C=O)NC(=O)[C@H](CC(C)C)NC(=O)[C@H](CC(C)C)NC(=O)OCc1ccccc1` [MG132, reference compound] (Cbz-Leu-Leu-Leu-aldehyde) the “expression of IRS-1” value [1] was “expressed normally”.

With `[Cl-].[Li+]` [LiCl] the “change of TRIM72 transcription in IGF-I induced muscle differentiation” value ([2]; rapamycin 100 nM, LiCl 5 mM) was “no change” and the “MyoD-dependent TRIM72 transcription in myoblasts” value [3] was “not affected”.

With `O=c1cc(N2CCOCC2)oc2c(-c3ccccc3)cccc12` [LY294002] the “decrease of TRIM72 transcription in IGF-I induced muscle differentiation” value ([2]; LY294002 10 μM) was 4 times.

B1: C14A TRIM72: TRIM72 mutant protein in which the 14th amino acid is substituted from cystine to alanine (protein, listed as Mus musculus)
chain: MSAAPGLLRQELSAPLCLQLFDAPVTAECGHSFCRACLIRVAGEPAADGTVACPCCQAPTRPQALSTNLQLSRLVEGLAQVPQGHCEEHLDPLSIYCEQDRTLVCGVCASLGSHRGHRLLPAAEAQARLKTQLPQQKMQLQEACMRKEKTVAVLEHQLVEVEETVRQFRGAVGEQLGKMRMFLAALESSLDREAERVRGDAGVALRRELSSLNSYLEQLRQMEKVLEEVADKPQTEFLMKFCLVTSRLQKILSESPPPARLDIQLPVISDDFKFQVWKKMFRALMPALEELTFDPSSAHPSLVVSSSGRRVECSDQKAPPAGEDTRQFDKAVAVVAQQLLSQGEHYWEVEVGDKPRWALGVMAADASRRGRLHAVPSQGLWLLGLRDGKILEAHVEAKEPRALRTPERPPARIGLYLSFADGVLAFYDASNPDVLTPIFSFHERLPGPVYPIFDVCWHDKGKNAQPLLLVGPEQEQA
modifications: or SEQ ID NO 2
notes: TRIM72 mutant protein in which the 14th amino acid is substituted from cystine to alanine
For B1, the muscle differentiation [4] was “enhanced” and the IRS-1 ubiquitination [5] was “completely inhibited”.

B2: TRIM72: TRIM72 protein (SEQ ID NO: 1 or 2) or its gene, overexpressed via adenoviral vector or plasmid; negative regulator of muscle differentiation (protein)
chain: MSAAPGLLHQELSCPLCLQLFDAPVTAECGHSFCRACLGRVAGEPAADGTVLCPCCQAPTRPQALSTNLQLARLVEGLAQVPQGHCEEHLDPLSIYCEQDRALVCGVCASLGSHRGHRLLPAAEAHARLKTQLPQQKLQLQEACMRKEKSVAVLEHQLVEVEETVRQFRGAVGEQLGKMRVFLAALEGSLDCEAERVRGEAGVALRRELGSLNSYLEQLRQMEKVLEEVADKPQTEFLMKYCLVTSRLQKILAESPPPARLDIQLPIISDDFKFQVWRKMFRALMPALEELTFDPSSAHPSLVVSSSGRRVECSEQKAPPAGEDPRQFDKAVAVVAHQQLSEGEHYWEVDVGDKPRWALGVIAAEAPRRGRLHAVPSQGLWLLGLREGKILEAHVEAKEPRALRSPERRPTRIGLYLSFGDGVLSFYDASDADALVPLFAFHERLPRPVYPFFDVCWHDKGKNAQPLLLVGPEGAEA
modifications: left off: small tags and cut ends
notes: negative regulator of muscle differentiation
B2 was tested, and the myogenesis ([6]; C2C12, FIG. 6A (H&E staining)) was “prevented”, the “myogenesis as determined by expression level of myogenesis marker proteins (myogenin, caveolin-3 and MyHC) and nucleus number per myotubes” value ([6]; C2C12, FIGS. 6C and 6D) was “completely prevented” and the “amount of MyHC” value ([6]; C2C12, MyHC staining, FIG. 6B) was “decreased”. The fusion between cells ([6]; overexpression in myoblasts, FIG. 6) was “completely inhibits”, the “IGF-1-induced AKT phosphorylation” value [7] was “inhibited” and the “IGF-1-induced ERK1/2 phosphorylation” value [8] was “not changed”. The “IGF-1-induced PI3K activation” value [9] was “abrogated”, the “tyrosine phosphorylation of IGFR induced by IGF-I” value [10] was “not changed” and the “tyrosine phosphorylation of IRS-1” value [11] was “decreased”. The “molecular association of IRS-1 with PI3K after IGF-I stimulation” value [12] was “weakened”, the muscle differentiation [4] was “inhibited” and the “expression of IRS-1” value [1] was “decreased”. The IRS-1 ubiquitination [5] was “increased” and the “expression of M-Cadherin” value [13] was “decreased”.
